Source: PMC10397247

Columns and labels:
Experiment in all cases: two-hybrid library CCmax;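 note: natural log of median RNA to DNA barcode read ratio; higher means stronger binding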
4H2617-AA = molecular target: T1, 4H2617-AA; details: mean of both orientations
T1 chain: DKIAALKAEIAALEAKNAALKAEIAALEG

4H1629-AA = molecular target: T2, 4H1629-AA; details: mean of both orientations
T2 chain: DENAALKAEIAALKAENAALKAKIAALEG

AP7-AA = molecular target: T3, AP7-AA; details: mean of both orientations
T3 chain: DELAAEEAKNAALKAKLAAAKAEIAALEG

zCON9_A = molecular target: T4, zCON9_A
T4 chain: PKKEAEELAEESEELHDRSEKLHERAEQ

4H3133-AA = molecular target: T5, 4H3133-AA; details: mean of both orientations
T5 chain: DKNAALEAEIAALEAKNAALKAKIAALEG

P4-AA = molecular target: T6, P4-AA; details: mean of both orientations
T6 chain: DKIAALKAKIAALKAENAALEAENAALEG

4H2729-AA = molecular target: T7, 4H2729-AA; details: mean of both orientations
T7 chain: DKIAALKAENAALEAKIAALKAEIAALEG

4H3343-AA = molecular target: T8, 4H3343-AA; details: mean of both orientations
T8 chain: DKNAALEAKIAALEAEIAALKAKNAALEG

4H340-AA = molecular target: T9, 4H340-AA; details: mean of both orientations
T9 chain: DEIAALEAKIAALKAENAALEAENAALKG

4H1845-AA = molecular target: T10, 4H1845-AA; details: mean of both orientations
T10 chain: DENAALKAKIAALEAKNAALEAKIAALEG

P12-AA = molecular target: T11, P12-AA; details: mean of both orientations
T11 chain: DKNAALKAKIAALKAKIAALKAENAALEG

4H1636-AA = molecular target: T12, 4H1636-AA; details: mean of both orientations
T12 chain: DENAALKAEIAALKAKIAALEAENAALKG

4H2553-AA = molecular target: T13, 4H2553-AA
T13 chain: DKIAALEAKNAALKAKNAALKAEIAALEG

O6-AA = molecular target: T14, O6-AA; details: mean of both orientations
T14 chain: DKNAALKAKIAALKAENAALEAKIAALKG

4H_APH2 = molecular target: T15, 4H_APH2
T15 chain: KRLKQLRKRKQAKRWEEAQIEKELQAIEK

4H1513-AA = molecular target: T16, 4H1513-AA; details: mean of both orientations
T16 chain: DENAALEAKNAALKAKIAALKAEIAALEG

4H993-AA = molecular target: T17, 4H993-AA; details: mean of both orientations
T17 chain: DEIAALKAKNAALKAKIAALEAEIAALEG

4H678-AA = molecular target: T18, 4H678-AA; details: mean of both orientations
T18 chain: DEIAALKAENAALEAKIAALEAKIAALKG

P9-AA = molecular target: T19, P9-AA; details: mean of both orientations
T19 chain: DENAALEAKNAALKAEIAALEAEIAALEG

AP5-AA = molecular target: T20, AP5-AA; details: mean of both orientations
T20 chain: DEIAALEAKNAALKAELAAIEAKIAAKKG

4H3162-AA = molecular target: T21, 4H3162-AA; details: mean of both orientations
T21 chain: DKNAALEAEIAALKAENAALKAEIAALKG

4H3588-AA = molecular target: T22, 4H3588-AA; details: mean of both orientations
T22 chain: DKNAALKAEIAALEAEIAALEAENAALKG

4H906-AA = molecular target: T23, 4H906-AA; details: mean of both orientations
T23 chain: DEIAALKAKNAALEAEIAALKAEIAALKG

4H317-AA = molecular target: T24, 4H317-AA
T24 chain: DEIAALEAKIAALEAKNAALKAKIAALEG

AP1-AA = molecular target: T25, AP1-AA; details: mean of both orientations
T25 chain: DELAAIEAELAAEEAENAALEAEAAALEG

4H3655-AA = molecular target: T26, 4H3655-AA; details: mean of both orientations
T26 chain: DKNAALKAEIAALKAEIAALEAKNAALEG

B1: 4H1401-AA (peptide)
chain: DENAALEAKIAALKAKNAALKAEIAALEG
interaction score (4H2617-AA): -0.502 | interaction score (4H1629-AA): -1.08 | interaction score (AP7-AA): -1.37 | interaction score (zCON9_A): -1.95 | interaction score (4H3133-AA): -0.677 | interaction score (P4-AA): -1.93 | interaction score (4H2729-AA): 0.705 | interaction score (4H3343-AA): -1.44 | interaction score (4H340-AA): -1.93 | interaction score (4H1845-AA): -1.13 | interaction score (P12-AA): -1.92 | interaction score (4H1636-AA): -1.81 | interaction score (4H2553-AA): -1.65 | interaction score (O6-AA): 1.98 | interaction score (4H_APH2): -2.35 | interaction score (4H1513-AA): -1.9 | interaction score (4H993-AA): -1.26 | interaction score (4H678-AA): -0.21 | interaction score (P9-AA): -0.999 | interaction score (AP5-AA): -0.362 | interaction score (4H3162-AA): -0.375 | interaction score (4H3588-AA): -0.275 | interaction score (4H906-AA): -1.91 | interaction score (4H317-AA): -1.49 | interaction score (AP1-AA): -1.76 | interaction score (4H3655-AA): -1.48
